According to the RNAGym collection of RNA variant scans (doi:10.7554/elife.80360):

B1: CPEB3 Ribozyme (parent)
chain: GGGGGCCACAGCAGAAGCGUUCACGUCGCGGCCCCUGUCAGAUUCUGGUGAAUCUGCGAAUUCUGCUGU

Variants of: B1
Assay: self-cleavage, relative activity (ratio to wild type); higher = more cleavage; co-transcriptional

Variant	self-cleavage
A15U A51G	0.916
A15U A51C	0.79
A16C C54A	0.256
A16C C54U	0.313
A16C C54G	0.152
A16G A23C	0.928
A16G A23G	0.921
A16G A23U	0.955
A15U C54U	0.845
A15U C54G	0.412
A15U C54A	0.468
A15U U38G	0.178
A15U U38A	0.548
A15U G25U	0.148
A16G G48C	0.892
A16G G48A	0.964
A16G G48U	0.974
A15U G65C	0.433
A16G U49G	0.979
A15U C35U	0.776
A15U A52U	0.804
A15U A52C	0.889
A16G U64G	0.727
A16G U64A	0.645

Variant	self-cleavage
A16C G65A	0.155
A16C G65U	0.13
A15U A40G	0.697
A15U A40C	0.287
A16G C32U	0.941
A16C U64G	0.119
A16C A60U	0.103
A16C A60G	0.418
A15U A59G	0.856
A15U A59C	0.42
A15U A59U	0.331
A16C C34G	0.168
A16C C34U	0.353
A15U G19U	0.127
A15U G19C	0.132
A15U G19A	0.13
A16C U26G	0.102
A16C U26C	0.264
A16C U26A	0.158
A15U C22G	0.126
A15U C22U	0.107
A15U C22A	0.225
A16C G25A	0.139
A16C G25U	0.103

Variant	self-cleavage
A15U U43C	0.731
A15U U43A	0.479
A15U U43G	0.429
A16C C35U	0.17
A16C C35A	0.071
A16C C35G	0.118
A16G C18U	0.569
A16G C18A	0.0836
A16G A59C	0.417
A16G A59G	0.944
A16C C27A	0.114
A16C C27G	0.122
A16C C27U	0.15
A15U	0.928
A16G U62A	0.712
A16G U62C	0.788
A16G U61A	0.833
A16G U61C	0.951
A16G U61G	0.732
A16G U21G	0.395
A16G U21C	0.777
A16G C39U	0.808
A16G C39A	0.591
A16G C39G	0.745

Variant	self-cleavage
A16G G58C	0.95
A15U U20C	0.211
A15U U20A	0.106
A15U U20G	0.132
A16G A42C	0.608
A16G C63G	0.527
A16G C63A	0.648
A15U C34A	0.513
A15U C34U	0.891
A15U C34G	0.372
A16C C39A	0.108
A16G G30U	0.201
A16G G30C	0.105
A16G G30A	0.612
A15U G48A	0.925
A16C G41A	0.129
A16C G41U	0.142
A15U G17U	0.221
A15U G17A	0.159
A16C U20G	0.285
A16C C22A	0.105
A16C C22G	0.0967
A15U C66U	0.643
A15U C66G	0.516

Variant	self-cleavage
A15U C66A	0.324
A16C C32G	0.136
A16C C32U	0.299
A15U G41C	0.257
A15U G41U	0.378
A15G U69A	1.04
A15G U69G	1.05
A15G U69C	1.05
A15U U26C	0.634
A15U U26G	0.424
A15U U26A	0.34
A16G C45U	0.884
A16G C45A	0.811
A16G C45G	0.958
A16G G50U	0.994
A16C C63G	0.12
A16C C63A	0.173
A16C C63U	0.19
A16G U20A	0.129
A16G U20C	0.159
A16G U20G	0.155
A16G G41C	0.41
A16G G41U	0.472
A15U C24U	0.28

Variant	self-cleavage
A15U C24G	0.214
A16G C35U	0.893
A15U C45G	0.823
A15U U44A	0.705
A15U U67A	0.889
A15U U67G	0.87
A16G G25C	0.257
A16G G25U	0.174
A16G G25A	0.283
A16G C33U	0.946
A16G C33G	0.29
A16G G65C	0.446
A16G G56A	0.703
A16G G56C	0.458
A16G U46C	0.728
A16G U46G	0.969
A16G C54U	0.928
A16G U44A	0.835
A16G G17A	0.0854
A16G G17U	0.559
A16G A52U	0.804
A16G A52G	0.87
A16G U53C	0.622
A16G A40U	0.409

Variant	self-cleavage
A16G A40C	0.243
A16C C57U	0.107
A15G U62C	0.956
A15G U62A	0.906
A16C U36A	0.115
A16C U36C	0.165
A16C U36G	0.108
A16C C24G	0.171
A15U C33A	0.493
A15U C33U	0.912
A15U A42U	0.613
A15U A42C	0.594
A15U A16U	0.798
A15U A16C	0.135
A16G U55C	0.534
A15U G31C	0.183
A15U G31U	0.205
A15U G31A	0.248
A16C G56U	0.145
A15G U61A	0.982
A15G U61C	0.892
A15G U61G	0.822
A15U A60C	0.298
A15U A60G	0.416

Variant	self-cleavage
A16C A23C	0.277
A16C A23G	0.0786
A16C A23U	0.549
A15U U55C	0.418
A15U U55A	0.412
A16G A60U	0.207
A16G A60C	0.58
A16C G37U	0.0859
A16C G37C	0.176
A16C G37A	0.0923
A16C C18A	0.129
A16C C18G	0.114
A16G C66G	0.646
A16G C66U	0.89
A15U G28U	0.167
A15U G28C	0.206
A16G U26A	0.801
A16G U26G	0.848
A15U C32A	0.285
A15U C32G	0.247
A16C C66A	0.18
A16C C66G	0.198
A15U G37A	0.219
A15U G37U	0.176

Variant	self-cleavage
A15U G37C	0.179
A16G G68U	0.956
A16G G68C	0.981
A16G C29U	0.111
A16G C29A	0.224
A16C G47C	0.368
A16C G47A	0.303
A16C U21A	0.273
A16C U21G	0.0655
A15G U64G	0.918
A16C G58C	0.28
A16C G58A	0.189
A16C G58U	0.494
A16G	0.946
A16C	0.373
A15U G47A	0.95
A15U G47C	0.989
A15U G47U	0.919
A16G C57U	0.317
A16G C57A	0.335
A16G C57G	0.324
A15G U55A	0.892
A15G U55C	0.869
A15G U55G	0.85

Variant	self-cleavage
A15U G30A	0.361
A15U G30C	0.287
A15U G30U	0.184
A15U C39A	0.309
A15U C39G	0.622
A16G G47U	0.998
A16C A42C	0.245
A16C A42U	0.102
A15U G68C	0.929
A16C U69G	0.588
A16C U69A	0.451
A16C G17U	0.127
A16C G17A	0.144
A16C G17C	0.0992
A16C U46A	0.51
A16G C34U	0.845
A16G C34A	0.583
A16G C34G	0.576
A15U U62C	0.946
A15U U62G	0.991
A15U C57A	0.298
A15U C57G	0.259
A15U U61C	0.686
A15U U61G	0.854

Variant	self-cleavage
A16G U43A	0.784
A16G U43C	0.791
A15U A23C	0.723
A15U A23U	0.95
A15U A23G	0.658
A15U U49C	0.817
A15U U49A	0.931
A15U U49G	0.884
A16C G48A	0.328
A16C G48U	0.375
A16G U38C	0.665
A16G U38A	0.767
A16C G50C	0.301
A15U U46C	0.848
A15U C63A	0.832
A15U C63U	0.794
A16C G19U	0.137
A16C G19A	0.132
A16C G19C	0.0843
A16C A52C	0.239
A16C A52U	0.249
A16C U67G	0.257
A16C U67A	0.331
A15U G56C	0.402

Variant	self-cleavage
A15U G56A	0.648
A16C U43A	0.118
A15U C18U	0.338
A15U C18A	0.122
A15U C18G	0.186
A16G U67C	0.935
A16G U67G	0.951
A16C A59G	0.287
A15U C27G	0.168
A15U C27A	0.0897
A15U U36A	0.194
A15U U36G	0.181
A16C U61G	0.848
A16G G31U	0.309
A16G G31C	0.147
A16G G31A	0.527
A16G A51C	0.819
A16G A51G	0.894
A16C U38G	0.15
A16C U38C	0.137
A16C U38A	0.269
A16C G30C	0.191
A16G C22G	0.0656
A16C U53C	0.152

Variant	self-cleavage
A16C U53G	0.251
A15U U53A	0.468
A15U U53C	0.413
A15U U53G	0.566
A16C G28A	0.103
A16C G28C	0.133
A16C U44C	0.178
A16G U36C	0.724
A15U U69G	0.998
A16G G37U	0.216
A16G G37C	0.146
A16C G68A	0.61
A16C G68C	0.454
A15U G50U	0.858
A15U G50C	0.795
A16C C33A	0.213
A16C C33G	0.0588
A16C U55G	0.204
A16C U55A	0.153
A16G G28C	0.0652
A16C A40U	0.0836
A16C A40C	0.118
A15G U53G	0.958
A15U C29A	0.245

Variant	self-cleavage
A15U C29G	0.169
A16C A51G	0.33
A16C A51C	0.217
A16C A51U	0.239
A15U U21C	0.592
A15U U21G	0.157
A16C C29U	0.192
A16C C29A	0.186
A16C C29G	0.165
A15U G58C	0.821
A15U G58A	0.754
A15U G58U	0.963
A15G U67A	0.971
A15G U67C	0.943
A15G U67G	0.996
A15U U64C	0.654
A15U U64G	0.549
A15U U64A	0.683
A16C U49G	0.319
A16C U49C	0.377
A16C U49A	0.419
A16G U69A	1.04
